In article PMC5007808, “Structure-oriented substrate specificity engineering of aldehyde-deformylating oxygenase towards aldehydes carbon chain length” (Biotechnology for Biofuels, 2016):

Tests used:
[1] = substrate: CCCCCCCC=O; assay: GC headspace quantification of alkane product; format: biochemical, Synechococcus elongatus; settings: NADH/PMS reducing system, catalase, 80 uM ferrous ammonium sulfate, 100 mM HEPES, 100 mM KCl, pH 7.2, 37 °C
[2] = substrate: CCCCCCC=O; assay: GC headspace quantification of alkane product; format: biochemical, Synechococcus elongatus; settings: NADH/PMS reducing system, catalase, 80 uM ferrous ammonium sulfate, 100 mM HEPES, 100 mM KCl, pH 7.2, 37 °C
[3] = substrate: CCCCCCCCC=O; assay: GC headspace quantification of alkane product; format: biochemical, Synechococcus elongatus; settings: NADH/PMS reducing system, catalase, 80 uM ferrous ammonium sulfate, 100 mM HEPES, 100 mM KCl, pH 7.2, 37 °C
purified protein = substrate: CCCCCC=O; assay: purified protein; settings: NADH/PMS reducing system, catalase, 80 uM ferrous ammonium sulfate, 100 mM HEPES, 100 mM KCl, pH 7.2, room temperature

| Protein | Km [1] [µM] | kcat [1] [s⁻¹] | kcat/Km [1] [M⁻¹ s⁻¹] | Km [2] [µM] | kcat [2] [s⁻¹] | kcat/Km [2] [M⁻¹ s⁻¹] | Km [3] [µM] | kcat [3] [s⁻¹] | kcat/Km [3] [M⁻¹ s⁻¹] | Km (purified protein) [µM] | kcat (purified protein) [s⁻¹] | kcat/Km (purified protein) [M⁻¹ s⁻¹] |
| --- | --- | --- | --- | --- | --- | --- | --- | --- | --- | --- | --- | --- |
| cADO-1593 (Synechococcus elongatus PCC 7942 = FACHB-805) (protein, full length, codon-optimized gene in pET-28a, His-tag (nickel column), E. coli BL21(DE3); apo enzyme reconstituted with Fe(II)) MPQLEASLELDFQSESYKDAYSRINAIVIEGEQEAFDNYNRLAEMLPDQRDELHKLAKMEQRHMKGFMACGKNLSVTPDMGFAQKFFERLHENFKAAAAEGKVVTCLLIQSLIIECFAIAAYNIYIPVADAFARKITEGVVRDEYLHRNFGEEWLKANFDASKAELEEANRQNLPLVWLMLNEVADDARELGMERESLVEDFMIAYGEALENIGFTTREIMRMSAYGLAAV | 180 ± 30 | 0.0233 ± 0.001 | 130 ± 5 | 590 ± 70 | 0.0132 ± 0.0005 | 21.7 ± 1.67 | 69 ± 8.7 | 0.0102 ± 0.000333 | 150 ± 8.33 | 930 ± 100 | 0.03 | 31.7 |
| cADO-1593 (Synechococcus elongatus PCC 7942 = FACHB-805; A121F) (protein, full length, codon-optimized gene in pET-28a, His-tag (nickel column), E. coli BL21(DE3); apo enzyme reconstituted with Fe(II)) MPQLEASLELDFQSESYKDAYSRINAIVIEGEQEAFDNYNRLAEMLPDQRDELHKLAKMEQRHMKGFMACGKNLSVTPDMGFAQKFFERLHENFKAAAAEGKVVTCLLIQSLIIECFAIAFYNIYIPVADAFARKITEGVVRDEYLHRNFGEEWLKANFDASKAELEEANRQNLPLVWLMLNEVADDARELGMERESLVEDFMIAYGEALENIGFTTREIMRMSAYGLAAV | 180 ± 36 | 0.0163 ± 0.001 | 90 ± 5 | 560 ± 60 | 0.025 ± 0.00167 | 45 ± 3.33 | 140 ± 22 | 0.0128 ± 0.000667 | 90 ± 5 | 960 ± 50 | 0.115 | 120 |
